The record followed here is article PMC4551920.

Where two headings read alike, the source gives them in different places.

Series [1] concerns the target T1, CUGBP1-Flag (UniProt Q92879 1-486). The series is described as follows: EMSA. On the technique in general: Mobility shift assays separate free from complexed probe on a gel.
Series [2] concerns the target T1, CUGBP1-Flag. The series is described as follows: EMSA. This is another data set of the same source.

T1 sequence (Q92879 whole entry): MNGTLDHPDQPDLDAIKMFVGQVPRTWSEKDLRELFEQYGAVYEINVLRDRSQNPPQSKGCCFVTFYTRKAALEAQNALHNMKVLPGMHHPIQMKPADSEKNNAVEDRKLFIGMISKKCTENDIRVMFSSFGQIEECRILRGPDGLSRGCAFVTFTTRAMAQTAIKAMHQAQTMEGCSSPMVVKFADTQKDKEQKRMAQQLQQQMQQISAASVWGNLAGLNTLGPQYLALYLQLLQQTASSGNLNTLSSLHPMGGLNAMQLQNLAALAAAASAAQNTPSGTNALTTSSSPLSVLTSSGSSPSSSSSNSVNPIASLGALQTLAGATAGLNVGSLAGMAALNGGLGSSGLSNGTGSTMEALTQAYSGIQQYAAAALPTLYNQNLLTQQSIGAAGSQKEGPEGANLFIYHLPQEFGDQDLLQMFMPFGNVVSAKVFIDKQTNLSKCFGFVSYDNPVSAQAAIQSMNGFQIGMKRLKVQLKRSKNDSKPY

With UAGCAGCACGUAAAUAUUGGCG (ssRNA) [miR-16], the binding result with CUGBP1-Flag [1] was “no binding”. UGGAGUGUGACAAUGGUGUUUGAAAAA (ssRNA) [miR-122 27-nt (3'-a5)]: in the series with CUGBP1-Flag [2], the binding result is given as “binds”.

In the case of UGGAGUGUGACAAUGGUGUUUGA (ssRNA) [miR-122 23-nt (3'-a)], in the series with CUGBP1-Flag [2], the binding result is recorded as “binds”.

Turning to UGGAGUGUGACAAUGGCCCCCC (ssRNA) [miR-122 17-22C], the binding result with CUGBP1-Flag [2] was “no binding”.
